Results on 41 sequences are retold here after the nanobody polyreactivity screen of Harvey et al. (2022).

A short description of this series: yeast display, Sf9 membrane polyspecificity reagent, FACS + sequencing; frameworks hold sequencing errors. In outline: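 Synthetic nanobody libraries on Saccharomyces cerevisiae BJ5465 were galactose-induced for 36–48 hours, stained 1 hour at 4 °C with 10% biotinylated, detergent-solubilized Sf9 membrane reagent and enriched on streptavidin microbeads. FACS then separated cells into low and high (top ~1%) gates by anti-HA (expression) and streptavidin (reagent binding) fluorescence. Genes were colony-PCR amplified, MiSeq 2 × 250 sequenced and CDR-length filtered. A clone's polyreactivity label is that of its gate of origin.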
In the case of “QVHFVESGGGLVQAGGSLRLSSAASGRTFQYNAMGWYRQAPGKERELVARITWSGDSTYYADSVKGRFTISRDNAKNSVYLQMNSLKPEDTAVYYCNAGRRWRRTAYDYWGQGTQVTVSS”, the “polyreactivity (PSR sort gate)” value is “high polyreactivity”.
Under “QVHHEETGGGIVQAGGSLRLSCAASGRIFDYIAMGWYRQAPGKERELVAAISQSGGSTYYADSVKGRFTISRDNAKNTVYLQMNSLKPEDTAVYYCAAFISRSRNEYWGQGTLVTVSS” stands “high polyreactivity”; under “QVHHVDSGGGLVQAGGTLRLSIPASGRTFQYYTMGWYRQPPGKERELVAAIRRGGSTYYADSVKGRFSISRDNAKNTVYLQLNILKPEDTAVYYCADLYAYSLTARGMEYWGQGTQVTVSS”, “high polyreactivity”; under “QVHHVESAGRLVQAGGILRLICPASGFTFGHYVMGWYRQEPGKERELLAAITLSGGGTYYADSVKGRFTISRDNAKNTGYLQMNSLKPQDTAVYYCAAVGGDHAKITYSRYKVDYWGQGTQVTVSS”, “low polyreactivity”.
Under “QVHHVESGGVLVQARVSLRLSCAASGIIIAYYAVGWYGQAPGKESELVAAITSGGSTSYADSVKGRFTISRDNAKNTVYLQMISLKPEDTAVYYCNTDPSGYESGYWGQGTQVTVSS” stands “low polyreactivity”; under “QVHIEDSGGGLLQAGGSLRLSCAATGRTFFYYAMGWYRQAPGKERELVAAISGRGGRTYYADSVKGRFTISRDNAINTVYLQMNSLKPEDTAVYFCGGDAGPLRYDYWGQGTQVTVSS”, “high polyreactivity”; under “QVHIVESGGGLVQAGGSLRLSCAASGINFGRNVMGWYRQPPGKERELVAAISWSGGRTYYADSVKGRFTISRDNAKNTVYFQIKSLITEDTAVYDCNARTGYYTGQYDYWGQGSQVTVSS”, “high polyreactivity”.
To “QVHLEDSGGGLVQAGVILRLSSPASGSIFVYNAMGWYRPAPGKERELVAAISSSGGSTYYADSVKGRFTISRDNAKNTVYLQMNSLKPEDTAVYYCAAEAVRKVPSYYSYAYYYWGQGTQVTVSS” belongs “high polyreactivity”; to “QVHLEESGGGLVQAGGSLRLSCAASGFTFHNNVMGWYRQAPGKERELVATISKSGGSTYYADSVKGRFTISRDNAKNPVYLQMKSLKPEDTAVYYSARRYRDYRRYAYWGQGTQVTVSS”, “high polyreactivity”.
As to “QVHLEESGGGLVQAGGSLRLSCAASGRTFYANTMGWYRPAPGKERELVAGITSGGSTSYADSVKGRFTISRDNAKNTVYLQMNSLKPEDTAVYYCAAQFYRYTATGYYADGYWGQGTQVTVSS”, the “polyreactivity (PSR sort gate)” value is “low polyreactivity”.
Under “QVHLGESGGGLVQAGGSLRLSCAASGSTFDRNVIGGYRQAPGKERELVAAISRVSSTNYADSVKGRFTISRDNAKNTVYLQMNSLKPEDTAVYYCAADRAGSIMNYWGQGTQVTVSS” stands “low polyreactivity”.
To “QVHLGETGGALVQAGGRLRLSCAASGITLGAYAMGWYRQAPGKERELVARIRIGGSTYYADSVKGRFTISRDYAKNTVFLQMNSLKPEDTAVYYCNALYRYLYRSGDYWGQGTQVTVSS” belongs “low polyreactivity”; to “QVHLLESGGGLVQAGGSLRLICAASGRILYPYALVWYRQAPGKETELVAAITFRGGNTYYADSVKARFTLSRDYAKNTVYLQMNSMKPEDTAVYFCAARKSPRSQVRGRSYYWGQGSQVTVSS”, “high polyreactivity”; to “QVHLQDSGGGLVQAGGSLRLSCAASCYISDVNDMGWYRQAPGKEREFVAGIGYGGITNYADSVKGRFTISRDNAQNTVYQHMNSLKPKDTAVYNCAVHWGPDSGLYYWGQGTQVTVSS”, “high polyreactivity”.
To “QVHLQDSGVGLVQAGGSLRLSCAASGSIFGSGSMGWFRQAPGKERELVATINNGSSTYYADSVKGRFTISRDNAKNTVYLQMNSLKPEDTAVYYCAVYLYRLTFFYYWGQGNQVTVSS” belongs “high polyreactivity”; to “QVHLQESGGGLVKAGGSLRLSCAASGTISPLPAMCWYRQAPGKEREFVAGIDTGAITNYADSVKGRFTISRDNAKNTVYLQMNSLKPEDTAVYYCAFFPAAYDYYERYYTYWGQGTQVTVSC”, “low polyreactivity”; to “QVHLQESGGGLVQAGGSLRLSCAASGTIFRFRYMGWHRQAPGKERELVAGINGGTTTYYADSVIGRFTISRDNAKNTVYLQMNSLKPDDTAVYNCAAGASRLTYYDFWGQGTQVTVSS”, “low polyreactivity”.
As for “QVHLQESGGGLVQAGGSLRMSCAASGTIFTEANMGWYRQAPGKERELVATIGLGSTTNYADSVKGRFTISRDNAKNTVYLQMNSLKPEETAVYYCAVVTVDPVGFVYWGQGSQVTVSS”, the “polyreactivity (PSR sort gate)” value is “low polyreactivity”.
To “QVHLVDSGGGLVQAGCSLPLSCAASGRTFLAYAMGWYRQEPGKERQLVAAISGSGGRSYYADSVKGRFTISRDNAMNTVYLQMNSLKPEDTAVYYCAANVVRWWGDGDYWGQGTQVTVSS” belongs “high polyreactivity”; to “QVHLVDSGGGLVQAGGSLRLSCAASGYIFPYNAMGWYRQEPGKERELVATITGTGGSTYYADSVKGRFTISRDNAKITVYLQMNSLKPEDTAVFYCAADLSIRYDHEYGYWGQGTQLTVSS”, “low polyreactivity”.
To “QVHLVESAGGLLQAAASLRLSGDASGSIISSYAMGWYRQAPGKERQLVAAITRSGGSTYYADSVKGRFTISRDYAKKTVYLQMNSLNPEDTAVYYCAARSYVHVFVRMYYWGQGTQVTVSS” belongs “high polyreactivity”; to “QVHLVESAGGLVQAGGSLRLSCAASGLIFGTYAMGWYRPAPGKERELVATINSSGGSTYYADSVKGRFTISRDNAKNTVYLQINSLKPEDTAVYYCAADNWVNDGDYWGQGTQVTVLS”, “low polyreactivity”.
Under “QVHLVESAGGLVQAGGSLRLSCAPSGSTFPLYVMGWYRQAPGKERELVAAIDWSGGSTYYADSVKGRFTISRDNAKNTVYLQMNRLKPEDSAVYYCNARYLRRGDYWGQGTQVTVSS” stands “low polyreactivity”; under “QVHLVESGAGLVHAGGRLRLSCAASGRIFFGYAMGWYRQAPGKERELVAGITSSTGRTYYADSVKGRFTISRDNAKNTVYLQMNSVKPEDTAVYYCAADTWYRYDYWGQGTQVTESS”, “low polyreactivity”; under “QVHLVESGGAIVQAGGSLRLSCAASGYIFDRNAMAWYRQAPGKERELVAAITKRGGITYYADSVKGRFTISRDNAKNTVYLQMNSLKAEDTAVYYCNALARSSRYDYWGKGTQVTVSS”, “low polyreactivity”.
Consider “QVHLVESGGALVQAGGSLRLSCAASGFTFHTYASRLYRQAPGKEREFVAAISYSGGNTYYADSVKGHFTISRDNAKKTVYLHMNSLKPEDTAVYYCAAQYYYRYYWGPGTQVTVSS”, for which the “polyreactivity (PSR sort gate)” value is given as “high polyreactivity”.
Under “QVHLVESGGCLVQAGGSLRLSCAASGFIFPTYAMGWYRQAPGKERELVATITTNAGGTHYADSVKGRFTISRDNAKNTVYLQMNCLKQEDTAVYYCAAKQYRPKQRKYWTRIYDYWGQGTQVTVSS” stands “low polyreactivity”.
To “QVHLVESGGCLVQAGGSLRLSCAASGSTFPSYAMGWYRQAPGKERELVAAINSGGGTNYADSVKGRFTITRDNAKNTVYLQLNILKPEDSAVYYGAADVWKLYDYWGQGTQVTVSS” belongs “low polyreactivity”; to “QVHLVESGGGFVQAGGSLRLSCAASGSIFWLYAMGWYRHAPGKERELVAAISWSTGGTYYADSVKGRFTISRDNAKNTVYLQMNSLKPEDTAVYYCNADTYDQYNYWGQGTQVTVSS”, “low polyreactivity”; to “QVHLVESGGGIVQAGGSLPLTCAAYGSIFNRYAMGWYRPAPGKERQLVAAISLTSGSTYYADYVKGRFTISRDNEKITVYLQMNSLKPEDTAVYYCATRRKVGPTQVGFYYRGGVDYWGQGTQVTVSS”, “high polyreactivity”.
To “QVHLVESGGGIVQAGLSLRLSCAASGRTFVVNAMGWYRQAPGKERELVAAISYSGGRTYYADSVKGRFTISRDIAKNTVYLKMNSLKPEDTAVYYCAAQSRYGGKFYYWGQGTQVTVSS” belongs “high polyreactivity”; to “QVHLVESGGGLDQAGGSLRLICPASGLIFYRYAMGWYRQAPGKERELVAAITTNGARTYYADSVKGRFTISRDNAKNTVYLQMNSLIPEDTAVYYCAGYGAGKFWAEHNYWGQGTQVTVSS”, “high polyreactivity”; to “QVHLVESGGGLDQAGGSLRLSCAASGRTFKRYAMGWYRQAPGKETELVAAISWSGTSTYYADSVKGRFTISRDNAKNTVYLQMNSLKPEDTALYFCNTPHRSSSVRSYGYWGQGTQVTVSS”, “high polyreactivity”.
For the sequence “QVHLVESGGGLFQAGGSLRISCAASGRIFIGNAMGWYRPAPGKERELVAAISKRGGSTYYADSVKGRFTISRDYAKNTVYLQMNSLKPEDTAVYYCNKESLYREFDYWGQGTQVTVSS”, the “polyreactivity (PSR sort gate)” value is recorded as “low polyreactivity”.
For the sequence “QVHLVESGGGLGKAGGSLRLSSAASGRTFQYYTMGWYRQAPGKARELVAAIRRGGSTYYADSVKGRFTISRDNAKNTVYLQMYSLKPEDTAVYYCAALYAYSLTARGMEYWGQGTQVTVSS”, the “polyreactivity (PSR sort gate)” value is listed as “high polyreactivity”.
Regarding “QVHLVESGGGLGQAGGSLRLSGAASGFIFGDYAMGWYRQAPGKERELVADINWTGGSTYYADSVKGRFTISRDNANNTVYLQMKSLKPEDTEVYYCDKDDYAFLITWVDYWGQGTQVTVSS”, the “polyreactivity (PSR sort gate)” value was “low polyreactivity”.
Under “QVHLVESGGGLVEAGGSLRLSCAASGRIFQGYAMGWYRQAPGKERELVAAITRSGGSTYYADSVKGRFTISRDNAKNTVYLQMNSLKPEDTAVYYCAASHYGLLEYWGQGTQVTVSS” stands “low polyreactivity”.
To “QVHLVESGGGLVHAGGSLRLSCAASGRSFTFYDMGWYRQAPGKERELVAAITQDSGSSTYYADSVKGRFTISRDNAKNTVYLQMNSLKPEDTAVYYCNADYPGFSSQNDYWGQGTHVTVSS” belongs “low polyreactivity”.
On to “QVHLVESGGGLVKAGGSLGLSCSPSGSTLSFNAMGWYRQAPGKERELVAGITYSGGSTYYADSVKGRFTISRDNAKNTFYLLMNSLKPEDTAVYYCNKASGVYYGHLDYWGQGTQVTVSS”, for which the “polyreactivity (PSR sort gate)” value is given as “low polyreactivity”.
With “QVHLVESGGGLVKAGGSLRLSCAASGISFGSNVMGLYRQAPGKERELVAAINYGGGSTYYADSVKGRFTISRDNAKNTVYLQMNSLKPEDTAVYYCAARGSRVYRYDYWGQGTQVTVSS”, the “polyreactivity (PSR sort gate)” value was “low polyreactivity”.
Take “QVHLVESGGGLVKAGGSLRLSCAASGRTFYKYAKGWYRQAPGKEREFVADISSRGGSTYYEDSVKGRFTISRDNAKNTLYLQMNSLKPEDTAVYYCNSRRNSVRYNYWGQGTQVTVSS”: the “polyreactivity (PSR sort gate)” value was “high polyreactivity”.
